Measurements: article PMC6177315 (Biochemistry, 2018)
Where two headings read alike, the source gives them in different places. Where no end group is shown, it is not given here.

B1: eIF5_(196–431) (GH-eIF5-CTD) (domain or fragment, human, UniProt P55010 196-431, looked up)
chain: EEEEDDDWGEDTTEEAQRRRMDEISDHAKVLTLSDDLERTIEERVNILFDFVKKKKEEGVIDSSDKEIVAEAERLDVKAMGPLVLTEVLFNEKIREQIKKYRRHFLRFCHNNKKAQRYLLHGLECVVAMHQAQLISKIPHILKEMYDADLLEEEVIISWSEKASKKYVSKELAKEIRVKAEPFIKWLKEAEEESSGGEEEDEDENIEVVYSKAASVPKVETVKSDNKDDDIDIDAI
B2: human eIF5B_(1076–1220), comprising domain 4 (GH-eIF5B-D4) (domain or fragment, UniProt O60841 1076-1220, looked up)
chain: YKKQKQEEFKHIAVFPCKIKILPQYIFNSRDPIVMGVTVEAGQVKQGTPMCVPSKNFVDIGIVTSIEINHKQVDVAKKGQEVCVKIEPIPGESPKMFGRHFEATDILVSKISRQSIDALKDWFRDEMQKSDWQLIVELKKVFEII
B3: human eIF5B_(951–1220), comprising domains 3 and 4 (GH-eIF5B-D34) (domain or fragment, UniProt O60841 951-1220, looked up)
chain: YKEDEIPVLKDELIHELKQTLNAIKLEEKGVYVQASTLGSLEALLEFLKTSEVPYAGINIGPVHKKDVMKASVMLEHDPQYAVILAFDVRIERDAQEMADSLGVRIFSAEIIYHLFDAFTKYRQDYKKQKQEEFKHIAVFPCKIKILPQYIFNSRDPIVMGVTVEAGQVKQGTPMCVPSKNFVDIGIVTSIEINHKQVDVAKKGQEVCVKIEPIPGESPKMFGRHFEATDILVSKISRQSIDALKDWFRDEMQKSDWQLIVELKKVFEII

Assays:
Assay in all cases: fluorescence polarisation
[1] = biological target: B3
[2] = biological target: B2
[3] = biological target: B3; remark: listed apart in the source
[4] = biological target: B2; remark: listed apart in the source
[5] = biological target: Full-length human eIF5 (GH-eIF5) (human, UniProt P55010 1-431)
[6] = biological target: B1

| Kd [3] [nM] | Kd [4] [nM] | Kd [5] [nM] | Binder | further results |
| --- | --- | --- | --- | --- |
|  |  |  | DIDIDAI (peptide, UniProt P55010 425-431, looked up, also: fluorescein label, position not given here) [fluorescein-labeled 7-residue eIF5 C-terminal peptide (Fl-eIF5-CT7)] | Kd [1]: 2400 nM; Kd [2]: 1400 nM |
| 1200 | 740 |  | DDDIDIDAI (peptide, UniProt P55010 423-431, looked up) [eIF5 fragment comprising the C-terminal 9 residues (eIF5-CT9)] |  |
| 1100 | 500 |  | EEEDEDENIEVVYSKAASVPKVETVKSDNKDDDIDIDAI (peptide, UniProt P55010 393-431, looked up) [eIF5 fragment comprising the C-terminal 39 residues (eIF5-CT39)] |  |
| 720 |  |  | B1 |  |
|  |  | 370 | B2 | Kd [6]: 370 nM |
|  |  | 510 | B3 |  |
